Source: patent publication US20210332339, “NOVEL NUCLEASE DOMAIN AND USE THEREOF” (HIROSHIMA UNIVERSITY, published 2021)

Experiments:
[1] = molecular target: ZFA36-ND1-RRR (Artificial); assay: cell_activity; SSA, ZFL1-6bp-ZFA36, paired with ND1-DDD; about 60% with FokI-DDD; alone almost inactive; conditions: D489R/N543R
Experimental: (§1) Genes to Cells 15: 875-885). To a 96-well multiwell plate (Iwaki) treated with polylysine coat, 25 μL of serum-free D-MEM culture solution was added, and 6 μL of plasmid solution was mixed. To this, 25.7 μL of a solution containing 0.7 μL of Lipofectamine LTX (Life Technologies) per 25 μL of serum-free D-MEM culture solution was added, and the mixture was allowed to stand at room temperature for 30 minutes. During this period, HEK293T cells were dissociated from a 100 mm tissue culture dish (Iwaki) by trypsin treatment, centrifuged at 1000 rpm for 3 minutes, the supernatant was removed, and the cells were suspended again in 5 mL of the culture solution. A 10 μL cell suspension was dispensed, and the number of cells was counted. […]
(§2) Furthermore, in order to functionally convert the amino acids of the novel nuclease domains corresponding to the amino acids (D483, R487, and N496) involved in the heterodimerization of FokI-ND to the DDD-type, each pSTL-hPGRN_ZFL1-ND was used as a template and a primer pair was used to perform PCR by PrimeSTAR Max. […] Note that the amount of each ZFN plasmid in 7.2 μL of the plasmid solution used in the SSA reporter assay was changed to 120 ng for the target half-site L and 120 ng for the target half-site R. In addition, nuclease activity was measured by the Cel-I assay in the same manner as described in Example 3.

[2] = molecular target: ZFA36-ND1 (Artificial (ND1 from Bacillus sp. …)); assay: cell_activity; Cel-I assay CHO-K1, stated for the sites overall; conditions: tags: TGAAARA linker; residues from the E. coli expression version (His/NLS); chain copies: 2 inferred
[3] = molecular target: ZFL1-ND1-DDD (Artificial); assay: cell_activity; SSA, ZFL1-6bp-ZFA36, paired with ND1-RRR; about 80% with FokI-RRR; alone almost inactive; conditions: R493D/N502D
ZFL1-ND1-DDD (Artificial), sequence (chain, as listed by the source): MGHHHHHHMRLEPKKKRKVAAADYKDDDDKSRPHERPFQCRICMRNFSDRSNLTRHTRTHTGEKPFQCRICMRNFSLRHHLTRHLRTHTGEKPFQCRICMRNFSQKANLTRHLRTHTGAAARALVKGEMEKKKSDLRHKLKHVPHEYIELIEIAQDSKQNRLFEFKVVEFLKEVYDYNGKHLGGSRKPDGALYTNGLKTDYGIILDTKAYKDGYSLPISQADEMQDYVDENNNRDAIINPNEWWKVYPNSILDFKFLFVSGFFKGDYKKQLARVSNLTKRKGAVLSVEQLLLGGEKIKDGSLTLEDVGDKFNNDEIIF
Experimental: as §1, §2

ZFA36-ND1-RRR (Artificial), sequence (chain, as listed by the source): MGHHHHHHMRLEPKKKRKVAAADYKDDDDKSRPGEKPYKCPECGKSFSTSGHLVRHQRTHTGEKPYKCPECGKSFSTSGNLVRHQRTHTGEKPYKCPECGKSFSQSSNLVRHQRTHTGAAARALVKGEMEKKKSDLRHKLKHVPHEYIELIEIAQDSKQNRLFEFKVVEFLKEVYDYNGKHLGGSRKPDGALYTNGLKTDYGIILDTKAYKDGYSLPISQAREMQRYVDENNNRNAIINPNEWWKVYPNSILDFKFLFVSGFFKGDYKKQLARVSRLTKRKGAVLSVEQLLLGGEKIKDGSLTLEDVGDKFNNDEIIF

B1: ZFA36 half-site (dsDNA)
DNA 1: GAAGATGGT
DNA 2: ACCATCTTC
- binding signal [1]: ~1.6 fold

B2: ZFA36-ZFA36 CHO-K1 3rd site (dsDNA)
DNA 1: ACCATCTTCCTTGATGAAGATGCC
DNA 2: GGCATCTTCATCAAGGAAGATGGT
- binding signal [2]: ~1.5 fold of FokI-ND

B3: ZFL1 half-site (dsDNA)
DNA 1: GAAGGTGAC
DNA 2: GTCACCTTC
- binding signal [3]: ~1.6 fold
